Molecular target: CCR5 (UniProt P51681)
Test: cell-based or functional assay

Chain of UniProt P51681 (P51681 whole entry): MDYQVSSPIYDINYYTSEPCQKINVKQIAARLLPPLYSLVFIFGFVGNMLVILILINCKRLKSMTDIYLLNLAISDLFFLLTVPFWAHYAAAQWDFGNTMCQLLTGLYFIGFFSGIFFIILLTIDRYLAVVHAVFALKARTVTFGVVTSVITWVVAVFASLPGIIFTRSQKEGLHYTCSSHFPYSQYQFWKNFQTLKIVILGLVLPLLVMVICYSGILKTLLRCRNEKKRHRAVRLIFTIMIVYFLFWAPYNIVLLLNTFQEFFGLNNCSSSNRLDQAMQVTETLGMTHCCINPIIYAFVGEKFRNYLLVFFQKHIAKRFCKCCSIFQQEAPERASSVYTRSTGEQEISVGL

| Substance | EC50, inhibition of HeLa P4-CCR5/HeLa-Env-ADA cell fusion (β-galactosidase reporter) |
| --- | --- |
| AOP-RANTES (2-68) (from UniProt P13501 25-91) (ligand) | 1.81 nM |
| NNY-RANTES (2-68) (from UniProt P13501 25-91) (ligand) | 0.323 nM |

From patent US7118737
